One assay addresses T1, BK (Mus musculus, UniProt Q08460).
T1 construct: expressed in transfected cells; host or cells: Xenopus laevis oocytes (cRNA injection)
The experiment in a line: Two electrode voltage clamp, Xenopus oocytes, BK. The format is cell-based. The protocol: (§1) To examine the effect of mokatoxin-1 on activity of potassium ion channels, cDNA encoding Rattus Kv1.1 (NCBI accession number NM_173095), Rattus Kv1.2 (NM_012970), Homo Kv1.3 (NM_002232), or Mus BK (NM_010610) were subcloned into oocyte expression vectors based on PCR3.1 and pGEM. cRNA synthesis was performed with T7 polymerase and the mMessageMachine Kit (Ambion, Austin, Tex.) according to manufacturers instructions. cRNA concentrations were determined spectroscopically. For two electrode voltage clamp recordings oocytes were extracted from Xenopus laevis and defoliculated with Collagenase Type 2 (Worthington, Lakewood, N.J.). Oocytes were maintained in ND91 solution containing 2 mM KCl, 91 mM NaCl, 1 mM MgCl2, 1.8 mM CaCl2, and 5 mM HEPES, pH 7.5, supplemented with 1% Penicillin/Streptomycin (Cellgro, Hemdon, Va.) and 0.1% Gentamycin sulfate (Gibco, Grand Island, N.Y.)) at 16° C. Stage V and VI oocytes were injected with 8 pg to 4 ng cRNA, and currents recorded 1 to 4 days later.
(§2) For dose-response measurements of toxin block of Kv1.1, Kv1,2, or Kv1.3 peak currents were recorded during a 500 ms step to 0 mV from a holding voltage of −100 mV, followed by a 200 ms step to −135 mV every 30 s. To determine the kinetics of toxin block oocytes were held at −100 mV and stepped to the test voltage of 0 mV for 100 ms followed by a 200 ms duration step to −135 mV every 2 s. BK currents were recorded during a 50 ms step to +60 mV from a holding voltage of −80 mV, followed by a 40 ms step to −100 mV every 3 s. The perfusion solution contained 2 mM KCl, 96 mM NaCl, 1 mM MgCl2, 1.8 mM CaCl2, 5 mM HEPES, pH 7.5 and 0.1% fatty acid ultra-free BSA fraction V (Roche Diagnostics Corporation, Indianapolis, Ind.). Data acquisition and processing was performed with an oocyte clamp OC-725B (Warner Instruments Corporation, Hamden, Conn.), pCLAMP (Axon, Sunnyvale, Calif.), IGOR Pro (WaveMetrics, Lake Oswego, Oreg.), and Origin6.1 (OriginLab Corporation, Northampton, Mass.) softwares. The equilibrium dissociation rates (KD) for block of Kv1.1, Kv1.2, and Kv1.3 by mokatoxin-1 were determined by fitting the dose-response data and kon and koff were calculated as described by Goldstein and Miller, 1993 (Biophys J. 1993 65 (4):1613-1619).

The next assay relates to guinea pig ileum. The note with it: J Pharmacol Exp Ther. 1999; cited from earlier work.
Another assay deals with T2, Kv1.1 (Rattus norvegicus, UniProt P10499).
T2 construct: expressed in transfected cells; host or cells: Xenopus laevis oocytes (cRNA injection)
T2 sequence (P10499 whole entry): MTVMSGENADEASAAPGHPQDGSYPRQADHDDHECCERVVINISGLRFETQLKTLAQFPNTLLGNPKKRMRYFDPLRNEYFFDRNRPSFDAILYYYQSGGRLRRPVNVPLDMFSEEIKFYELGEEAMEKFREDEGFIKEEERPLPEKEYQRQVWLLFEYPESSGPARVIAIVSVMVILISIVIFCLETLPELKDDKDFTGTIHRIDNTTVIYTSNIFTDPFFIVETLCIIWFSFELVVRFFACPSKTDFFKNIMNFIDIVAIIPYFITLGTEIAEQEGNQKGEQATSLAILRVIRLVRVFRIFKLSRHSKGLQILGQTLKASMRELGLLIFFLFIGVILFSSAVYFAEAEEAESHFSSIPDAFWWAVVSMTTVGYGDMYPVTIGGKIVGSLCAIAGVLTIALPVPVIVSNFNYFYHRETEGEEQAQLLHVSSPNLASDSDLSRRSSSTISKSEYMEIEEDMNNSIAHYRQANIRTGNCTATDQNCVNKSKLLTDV
The experiment in a line: Two electrode voltage clamp, Xenopus oocytes, Kv1.1. The format is cell-based. The protocol:
as §1, §2
In general terms: Two-electrode voltage clamp holds a large cell at a set potential and records current.

In another assay the target is Kv1.3 (Homo sapiens, UniProt P22001). The experiment in a line: Two electrode voltage clamp, Xenopus oocytes, Kv1.3. The assay is classed as cell-based. On the set-up: expressed in transfected cells; host or cells: Xenopus laevis oocytes (cRNA injection).
Chain of Kv1.3 (P22001 whole entry): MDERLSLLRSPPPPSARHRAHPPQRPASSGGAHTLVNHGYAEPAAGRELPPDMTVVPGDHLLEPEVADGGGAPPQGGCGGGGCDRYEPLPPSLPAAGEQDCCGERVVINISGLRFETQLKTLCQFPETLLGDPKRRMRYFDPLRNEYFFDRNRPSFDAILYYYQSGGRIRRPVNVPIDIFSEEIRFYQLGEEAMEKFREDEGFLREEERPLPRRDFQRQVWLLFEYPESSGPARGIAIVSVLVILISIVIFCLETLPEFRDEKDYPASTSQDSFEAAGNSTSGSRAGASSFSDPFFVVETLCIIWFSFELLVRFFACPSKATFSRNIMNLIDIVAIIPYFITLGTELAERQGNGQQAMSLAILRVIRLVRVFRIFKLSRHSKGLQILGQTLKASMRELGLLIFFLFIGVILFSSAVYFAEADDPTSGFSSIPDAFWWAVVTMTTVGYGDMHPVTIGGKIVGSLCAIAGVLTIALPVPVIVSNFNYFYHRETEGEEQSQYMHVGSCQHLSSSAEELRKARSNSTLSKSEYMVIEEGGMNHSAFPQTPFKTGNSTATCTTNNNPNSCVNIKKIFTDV
Source text: Thereafter, MK-1 was synthesized. […] The blocking of […] by MK-1 is represented by filled circles; the blocking of Kv1.2 by MK-1 is represented by filled diamonds; and the blocking of Kv1.1 by MK-1 is represented by filled triangles.
as §1, §2

Another assay addresses T3, Kv1.2 (Rattus norvegicus, UniProt P63142).
T3 construct: expressed in transfected cells; host or cells: Xenopus laevis oocytes (cRNA injection)
The experiment in a line: Two electrode voltage clamp, Xenopus oocytes, Kv1.2. The assay is classed as cell-based. The protocol: as §1, §2

The target of assay [1] is KcsA carrying a segment of the Kv1.3 pore loop (KcsA-1.3).
Assay [2] deals with Kv1.2 K+ channel, species not stated.
Assay [3] concerns the target BK channel, species not stated.
Assay [4] concerns the target Kv1.1 K+ channel, species not stated.
The target in assay [5] is Kv1.3 K+ channel, wild-type, species not stated.
Assay [6] shares this target. This is another data set of the same source.
For assay [7] the target is unchanged. In words: one round of panning of KTX and nonspecific phages on cells expressing Kv1.3.
Assay [8] shares this target. The source holds these as a separate data set.
The target is the same in assay [9]. The experiment in a line: phage panning on HEK cells.
Assay [10] shares this target. The experiment in a line: phage panning on COS cells.
The target of assay [11] is KcsA carrying a segment of the Kv1.3 pore loop (KcsA-1.3). This is another data set of the same source.
In assay [12] the target is Kv1.3 K+ channel, wild-type, species not stated. The source holds these as a separate data set.
The target is the same in assay [13]. This is another data set of the same source.
Assay [14] deals with KcsA carrying a segment of the Kv1.3 pore loop (KcsA-1.3). The experiment in a line: panning of a 1:99 mixture of Shk and Camel VHH phages on KcsA-1.3, n = 17-20.
For another assay, the target named is Rattus Kv1.1 (Rattus) (UniProt P10499).
In assay [15] the target is human Kv1.3 (Homo) (UniProt P22001).
For assay [16], the target named is Mus BK (mouse big conductance calcium-activated K channel) (Mus) (UniProt Q08460).
The target of the next assay is Rattus Kv1.2 (Rattus) (UniProt P63142).
The target in assay [17] is human Kv1.3 (Homo) (UniProt P22001). This is another data set of the same source.
The target in assay [18] is KcsA carrying a segment of the Kv1.3 pore loop (KcsA-1.3). In words: library panning on immobilised KcsA-1.3.
For assay [19] the target is unchanged. This is another data set of the same source.
Another assay has as its target human Kv1.3 (Homo, UniProt P22001). The experiment in a line: cell-based or functional assay.
For assay [20], the target named is Mus BK (mouse big conductance calcium-activated K channel) (Mus, UniProt Q08460). In words: cell-based or functional assay.
Another assay concerns the target Rattus Kv1.2 (Rattus, UniProt P63142). In words: cell-based or functional assay.
The target in another assay is Rattus Kv1.1 (Rattus, UniProt P10499). The experiment in a line: cell-based or functional assay.

Numbering of substitutions follows the chain as printed. Values joined by “and” are separate entries in the source; they are usually repeats but may differ in a detail not shown here. Equal values may be shown once. Where no end group is shown, it is not given here.

T3 sequence (P63142 whole entry): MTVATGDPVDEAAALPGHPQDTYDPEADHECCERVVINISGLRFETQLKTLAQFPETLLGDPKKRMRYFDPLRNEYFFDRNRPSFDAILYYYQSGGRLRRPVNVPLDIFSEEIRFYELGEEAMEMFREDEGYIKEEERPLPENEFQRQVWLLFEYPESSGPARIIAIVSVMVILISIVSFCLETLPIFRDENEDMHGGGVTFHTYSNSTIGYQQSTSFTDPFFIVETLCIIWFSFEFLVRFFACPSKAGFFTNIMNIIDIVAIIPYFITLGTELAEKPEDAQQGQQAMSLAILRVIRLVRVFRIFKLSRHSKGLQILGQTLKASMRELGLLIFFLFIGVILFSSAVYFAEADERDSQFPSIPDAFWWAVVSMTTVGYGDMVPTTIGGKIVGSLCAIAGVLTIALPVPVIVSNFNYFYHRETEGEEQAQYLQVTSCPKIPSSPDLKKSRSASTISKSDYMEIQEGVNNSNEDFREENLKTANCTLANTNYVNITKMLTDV
T1 sequence (Q08460 whole entry): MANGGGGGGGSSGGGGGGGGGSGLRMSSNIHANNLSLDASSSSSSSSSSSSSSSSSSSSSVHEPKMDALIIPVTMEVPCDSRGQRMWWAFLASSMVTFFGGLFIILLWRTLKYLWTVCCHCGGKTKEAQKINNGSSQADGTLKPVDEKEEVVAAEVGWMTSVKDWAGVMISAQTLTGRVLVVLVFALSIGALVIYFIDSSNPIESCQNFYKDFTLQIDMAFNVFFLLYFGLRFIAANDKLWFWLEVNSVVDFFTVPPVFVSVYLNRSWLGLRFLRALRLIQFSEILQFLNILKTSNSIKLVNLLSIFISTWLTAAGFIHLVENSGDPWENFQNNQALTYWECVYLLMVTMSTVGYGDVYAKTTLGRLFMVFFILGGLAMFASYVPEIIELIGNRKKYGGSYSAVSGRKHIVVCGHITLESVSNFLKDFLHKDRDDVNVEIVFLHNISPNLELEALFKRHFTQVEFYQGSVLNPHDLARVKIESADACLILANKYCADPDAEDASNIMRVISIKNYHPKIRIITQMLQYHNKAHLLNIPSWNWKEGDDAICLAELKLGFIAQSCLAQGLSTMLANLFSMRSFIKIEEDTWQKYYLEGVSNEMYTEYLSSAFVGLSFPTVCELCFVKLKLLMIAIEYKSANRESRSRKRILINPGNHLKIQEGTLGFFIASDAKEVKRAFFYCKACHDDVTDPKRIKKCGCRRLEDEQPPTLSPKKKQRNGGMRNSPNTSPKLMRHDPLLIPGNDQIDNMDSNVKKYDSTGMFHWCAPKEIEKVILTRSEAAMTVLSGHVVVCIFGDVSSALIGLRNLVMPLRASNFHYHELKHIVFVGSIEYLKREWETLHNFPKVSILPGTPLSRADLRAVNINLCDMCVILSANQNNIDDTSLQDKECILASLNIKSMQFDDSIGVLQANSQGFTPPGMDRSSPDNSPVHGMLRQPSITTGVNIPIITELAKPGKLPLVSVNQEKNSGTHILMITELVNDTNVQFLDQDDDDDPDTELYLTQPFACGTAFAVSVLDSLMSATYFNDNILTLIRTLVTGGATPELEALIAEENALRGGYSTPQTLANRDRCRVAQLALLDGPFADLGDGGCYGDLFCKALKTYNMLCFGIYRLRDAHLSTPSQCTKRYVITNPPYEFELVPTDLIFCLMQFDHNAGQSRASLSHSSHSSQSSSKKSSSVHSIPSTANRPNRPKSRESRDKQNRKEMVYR

Regarding `CC[C@H](C)[C@@H]1NC(=O)[C@@H]2CSSC[C@@H]3NC(=O)[C@H](CCCCN)NC(=O)[C@H](CCCNC(=N)N)NC(=O)[C@H](CC(N)=O)NC(=O)[C@H](CCSC)NC(=O)[C@H](CSSC[C@H](NC(=O)[C@H](CO)NC(=O)[C@@H](NC(=O)[C@H](CC(N)=O)NC(=O)[C@@H](NC(=O)[C@@H]4CCCN4C(=O)[C@@H](NC(=O)CN)C(C)C)[C@@H](C)CC)C(C)C)C(=O)N[C@@H]([C@@H](C)O)C(=O)NCC(=O)N[C@@H](CO)C(=O)N4CCC[C@H]4C(=O)N[C@@H](CCC(N)=O)C(=O)N2)NC(=O)[C@H](CCCCN)NC(=O)CNC(=O)[C@H](Cc2ccccc2)NC(=O)[C@H](CCCNC(=N)N)NC(=O)[C@H](CCSC)NC(=O)CNC(=O)[C@H](C)NC(=O)[C@H](CC(=O)O)NC(=O)[C@H](CCCCN)NC(=O)[C@H](CSSC[C@@H](C(=O)N[C@H](C(=O)N2CCC[C@H]2C(=O)N[C@@H](CCCCN)C(=O)O)[C@@H](C)O)NC(=O)[C@H](Cc2c[nH]cn2)NC3=O)NC(=O)[C@@H]2CCCN2C(=O)[C@H](CCCCN)NC1=O` [AgTX2, agitoxin-2], the IC50 (in general, the concentration that gives 50% inhibition) is roughly 1150 nM against BK, 0.04 nM at Kv1.1, 0.004 nM against Kv1.3 and 26.8 nM on Kv1.2. The ileum contractions result with guinea pig ileum was “contractions”.

Consider “Dendroaspis natriuretic peptide (DNP) phage (from UniProt P28374)”, for which, in assay [1], the Output (% Ligands) came out at 0%.

On to Kaliotoxin-1 (KTX) (peptide), for which the approximate IC50 came to 1.4 nM in assay [2], 5 nM in assay [3], 0.1 nM in assay [4] and 0.5 nM in assay [5].

Kaliotoxin-1 phage (KTX-phage) returned a % of phage after the 2nd panning in assay [6] of 40%. Besides, the Fold Enrichment was 4.3 fold and 5.2 fold in assay [7]; 3.6 fold in assay [11]. This molecule also gave a Kv1.3 current, whole-cell patch-clamp in assay [8] of 35%. This molecule returned an Output (% Ligands) in assay [1] of 100%. The fold enrichment (Kv1.3 transfected against vector cells) in assay [9] came out at 20 fold; in assay [10], 10 fold. Besides, the OUTPUT KTX (%) in assay [12] was 22% and 30% and 26%. Further, in [13], the % of recovered phage, 2nd round worked out at 0%. In assay [13], the % of recovered phage, 3rd round came out at 58%.

With “Shk phage (sea anemone Stichodactyla helianthus ShK toxin on phage)”, in assay [14], the % phages, OUTPUT is 20%.

For the molecule agitoxin-2 (AgTx2) (peptide), the approximate IC50 was determined as 26.8 nM in assay [2], 1150 nM in assay [3], 0.04 nM in [4] and 0.004 nM in assay [5].

charybdotoxin (CTX) (peptide): the approximate IC50 was determined as 5.6 nM in [2], 3 nM in [3], 1500 nM in assay [4] and 2.5 nM in assay [5].

“fasciculin-2 phage (from UniProt P0C1Z0)” returned an Output (% Ligands) in assay [1] of 0%.

As to mokatoxin-1 (peptide), the Ki (block of channel current) with Rattus Kv1.1 (Rattus) is greater than 1000 nM; with human Kv1.3 (Homo) [15], 1 nM; in assay [16], greater than 1000 nM; in the assay with Rattus Kv1.2 (Rattus), 620 nM. Also, the Koff (block of channel current) with human Kv1.3 (Homo) [15] is 0.059 [s]^-1; in the assay with Rattus Kv1.2 (Rattus) it was 0.16 [s]^-1. The Kon (block of channel current) is 3.6e+07 [M · s]^-1 with human Kv1.3 (Homo) [15] and 260000 [M · s]^-1 with Rattus Kv1.2 (Rattus). Besides, the IL-2, TNF-α and IFN-γ secretion by CD3/CD28 activated human T cells (ELISA) with human Kv1.3 (Homo) [17] was found to be 50%. Also, the approximate IC50 was 680 nM in [2], greater than 1000 nM in assay [3], greater than 1000 nM in assay [4] and 3 nM in assay [5].

Regarding mokatoxin-1-phage, in assay [6], the % of phage after the 2nd panning stood at 15%. The same molecule returned a % of the eluted phage after two rounds of panning in [18] of 16.6%. Besides, in [19], the % of the phage isolated after two rounds of selection stood at 60%.

In [1], “sarafotoxin S6b phage (from UniProt P13208)” registered an Output (% Ligands) of 0%.

B1: Kaliotoxin-1 (KTX) (peptide)
peptide: GVEINVKCSGSPQCLKPCKDAGMRFGKCMNRKCHCTPK
With B1, the “Ki (block of channel current)” value with human Kv1.3 is 0.008 nM; in [20], 1.6 nM; with Rattus Kv1.2, 20 nM; in the assay with Rattus Kv1.1, 1.1 nM. Besides, the “Koff (block of channel current)” value with human Kv1.3 was 0.007 [s]^-1; in [20], 0.0211 [s]^-1; with Rattus Kv1.2 it was 0.21 [s]^-1; with Rattus Kv1.1 it was 0.009 [s]^-1. In addition, the “Kon (block of channel current)” value is 8e+08 [M · s]^-1 in the assay with human Kv1.3, 21000 [M · s]^-1 in assay [20], 1.3e+07 [M · s]^-1 in the assay with Rattus Kv1.2 and 3e+07 [M · s]^-1 with Rattus Kv1.1.

B2: agitoxin-2 (AgTx2) (peptide)
peptide: B1 peptide with E3P, K7S, S9T, L15I
modifications: ends and bridges not checked; cysteine pairing not given here
Consider B2, for which the figures for the “Ki (block of channel current)” value with human Kv1.3, with Rattus Kv1.2 and with Rattus Kv1.1 were 0.041 nM, 3.4 nM and 0.17 nM, respectively.

B3: charybdotoxin (CTX) (peptide)
peptide: ZFTNVSCTTSKECWSVCQRLHNTSRGKCMNKKCRCYS
modifications: Z printed as first residue in Table 2
Turning to B3, the “Ki (block of channel current)” value in assay [20] is 5 nM; in the assay with Rattus Kv1.1, greater than 1000 nM.
